The series in a line: soluble on expression in E. coli; label from the status in PepcDB or PDB records.
As for “YLDVRQVMYTLVAVFIGSRVIDFVQEGAYAARGALIISKDNDAIASHVMLSMNRGVTVLEGRGGFSKNEQDVLYIVVAKNEIVQLKNIVQAIDPHAFVSVSVVHDVMGEGFTLDENKNPIY”, the “soluble on expression in E. coli” value is listed as “not soluble”.
Next, “YLELNEIESIIKDINTKAQKMHSGIHKRFYLFVALMTEFQALNGMRIGEMLAIQNEDIDFDNKSLNINGTIHWFHDESGGFGVKDTTKTESSYRTIGLSSRSCEILKKAILENKKDSKWNDGYLNRNFVFTNHKGNPMQTERFNKILREAAKDVGIDKEVSSHILRHSHISLLSQQGVSLKAIMDRVGHSDHRTTLSIYSHVTEQMDKDMMNKLEQVKLG”: “soluble”; “YNPIDNIQNATNRRNTVLANMVDDEKLSQADADSAAGVDMASRLVDTYQGTGDDYRYPSYFDAVIEEATKTYGLSEDEIVKNGY”: “not soluble”.
With YRRFEKEKLKSQWNNDNPLFKSATTTVMNPKFAES the entry was “soluble”.

The record behind these values is the DeepSol protein solubility set.
